From PMC11366018 (Nature Communications, 2024)
Changes are numbered by the printed parent chain.

B1: R1-26 (antibody, V domains shown)
VH: EVQLVESGGGLVQPGGSLRLSCAASGFTFSSYWMSWVRQAPGKGLEWVANIKQDGSEKYYVDSVKGRFTISRDNAKNSLYLQMNSLRAEDTAVYYCARGQLGPWVGVDYWGQGTLVTVSS
VL: NFMLTQPHSVSESPGKTVTISCTGSSGSIASNYVQWYQQRPGSAPTTVIYEDNQRPSGVPDRFSGSIDSSSNSASLTISGLKTEDEADYYCQSYDSSNWVFGGGTQLTVL
B2: R1-26 (IgG) (antibody, V domains shown)
VH: B1 VH
VL: B1 VL
B3: H18 (recombinant mAb, IgG) (antibody, V domains shown)
VH: QVQLQESGPGLVKPSETLSLTCTVSGGSVSSGGYFWSWIRQPPGKGLEWIGCIYYSGSTNYNPSLKSRVTISVDTSKDQFSLKLSSVTAADTAVYYCARQLWLRGRFDYWGQGTLVTVSS
VL: B1 VL with G24R, A44S, W99V, Q106K
B4: H18 (antibody, V domains shown)
VH: B3 VH
VL: B1 VL with G24R, A44S, W99V, Q106K
notes: human IgG1
B5: H4 (antibody, V domains shown)
VH: EVQLVESGGGLVQPGGSLRLSCAASGFTFSSYWMSWVRQAPGKGLEWVANIKQDGSEKYYVDSVKGRFTISRDNAKNSLYLQMNSLRAEDTAVYYCASQLWLRGAFDIWGQGTMVTVSS
VL: B1 VL with G24R, A44S, W99V, Q106K
B6: H5 (antibody, V domains shown)
VH: QVQLVESGGGLVKPGGSLRLSCAASGFTFSDYYMSWIRQAPGKGLEWVSYISSSGSTIYYADSVKGRFTISRDNAKNSLYLQMNSLRAEDTAVYYCARAKWLRGHFDYWGQGTLVTVSS
VL: B1 VL with G24R, A44S, W99V, Q106K
notes: human IgG1
B7: H14 (antibody, V domains shown)
VH: QVQLQESGPGLVKPSQTLSLTCTVSGGSISSGGYYWSWIRQHPGKGLEWIGYIYYSGSTYYNPSLKSLVTISVDTSKNQFSLKLSSVTAADTAVYYCARKGWLRGAFDIWGQGTMVTVSS
VL: B1 VL with G24R, A44S, W99V, Q106K
notes: human IgG1
B8: H16 (antibody, V domains shown)
VH: QLQLQESGPGLVKPSETLSLTCTVSGGSISSSSYYWGWIRQPPGKGLEWIGSIYYSGSTYYNPSLKSRVTISVDTSKNQFSLKLSSVTAADTAVYYCARREWLRGPFDYWGQGTLVTVSS
VL: B1 VL with G24R, A44S, W99V, Q106K
notes: human IgG1

Legend:
SARS-CoV-2 RBD (WT) [1] = target: T1, SARS-CoV-2 RBD (WT) (SARS-CoV-2 Wuhan-Hu-1 (wildtype), UniProt P0DTC2); test: BLI; settings: both partners purified
[2] = target: T2, wildtype SARS-CoV-2 spike receptor binding domain (RBD), residues 319-541 (SARS-CoV-2, wildtype (ancestral), UniProt P0DTC2); test: BLI; settings: both partners purified
[3] = target: T2, wildtype SARS-CoV-2 spike receptor …; test: cell-based or functional assay
Bat CoV RaTG13 RBD [4] = target: Bat CoV RaTG13 RBD (Bat coronavirus RaTG13, UniProt A0ABF7PLN6); test: BLI; settings: both partners purified
SARS-CoV-1 RBD = SARS-CoV-1 RBD (SARS-CoV-1, strain , UniProt P59594); test: BLI; settings: both partners purified
Pangolin CoV GD1 RBD = Pangolin CoV GD1 RBD (Pangolin coronavirus Guangdong, isolate …, strain); test: BLI; settings: both partners purified
Bat CoV RaTG13 RBD [5] = target: Bat CoV RaTG13 RBD (Bat coronavirus RaTG13, UniProt A0ABF7PLN6, strain); test: BLI; settings: both partners purified
SARS-CoV-2 RBD (WT) [6] = target: T1, SARS-CoV-2 RBD (WT); test: BLI; settings: both partners purified; remark: listed apart in the source

Binder	Kd (Pangolin CoV GD1 RBD)	koff (Pangolin CoV GD1 RBD)	kon (Pangolin CoV GD1 RBD)	Kd (Bat CoV RaTG13 RBD [5])	koff (Bat CoV RaTG13 RBD [5])	kon (Bat CoV RaTG13 RBD [5])	Kd (SARS-CoV-2 RBD (WT) [6])	koff (SARS-CoV-2 RBD (WT) [6])	kon (SARS-CoV-2 RBD (WT) [6])	also measured
B1										Kd (SARS-CoV-2 RBD (WT) [1]): 3.84 nM; koff (SARS-CoV-2 RBD (WT) [1]): 0.00177 s⁻¹; kon (SARS-CoV-2 RBD (WT) [1]): 460000 M⁻¹ s⁻¹
B2										Kd [2]: 3.8 nM; pseudovirus neutralization IC50 (pseudovirus displaying WT SARS-CoV-2 S-protein) [3]: 2.7 nM
B3										binding result (Bat CoV RaTG13 RBD [4]): binds
B4	134 nM	0.00624 s⁻¹	46500 M⁻¹ s⁻¹	332 nM	0.00612 s⁻¹	18400 M⁻¹ s⁻¹				Kd (SARS-CoV-1 RBD): 231 nM; koff (SARS-CoV-1 RBD): 0.00283 s⁻¹; kon (SARS-CoV-1 RBD): 12300 M⁻¹ s⁻¹
B5	355 nM	0.0102 s⁻¹	28800 M⁻¹ s⁻¹	503 nM	0.0134 s⁻¹	26700 M⁻¹ s⁻¹	29.9 nM	0.0105 s⁻¹	351000 M⁻¹ s⁻¹	
B6							1500 nM	0.195 s⁻¹	129000 M⁻¹ s⁻¹	binding result (Bat CoV RaTG13 RBD [5]): no binding (tested: 200 nM (highest of the series))
B7	451 nM	0.0205 s⁻¹	45500 M⁻¹ s⁻¹	302 nM	0.0151 s⁻¹	49900 M⁻¹ s⁻¹	34 nM	0.0182 s⁻¹	536000 M⁻¹ s⁻¹	
B8	737 nM	0.0254 s⁻¹	34400 M⁻¹ s⁻¹				97.9 nM	0.0498 s⁻¹	509000 M⁻¹ s⁻¹	binding result (Bat CoV RaTG13 RBD [5]): no binding (tested: 200 nM (highest of the series))
